From US6855515 come the findings set out here.

For the test, the target named is caspase-9 (UniProt P55211). Briefly: Ki printed in running text; no assay described.

“Ac-DEVD-CHO, N-(N-Ac-Asp-Glu-Val)-3-amino-4-oxobutanoic acid (peptide)” yielded a Ki of 60 nM.

By Ki is commonly meant the dissociation constant of the complex between target and ligand, obtained from inhibition or displacement.
